B1: mCD47-AP, soluble murine CD47 extracellular domain fusion protein (other, mouse, UniProt Q61735 19-140, looked up, not shown: large carriers)
chain: QLLFSNVNSIEFTSCNETVVIPCIVRNVEAQSTEEMFVKWKLNKSYIFIYDGNKNSTTTDQNFTSAKISVSDLINGIASLKMDKRDAMVGNYTCEVTELSREGKTVIELKNRTVSWFSPNEK
notes: extracellular domain
B2: murine signal regulatory protein α (SIRPα) on macrophages (receptor, mouse, UniProt P97797 32-513, looked up)
chain: KELKVTQPEKSVSVAAGDSTVLNCTLTSLLPVGPIRWYRGVGPSRLLIYSFAGEYVPRIRNVSDTTKRNNMDFSIRISNVTPADAGIYYCVKFQKGSSEPDTEIQSGGGTEVYVLAKPSPPEVSGPADRGIPDQKVNFTCKSHGFSPRNITLKWFKDGQELHPLETTVNPSGKNVSYNISSTVRVVLNSMDVNSKVICEVAHITLDRSPLRGIANLSNFIRVSPTVKVTQQSPTSMNQVNLTCRAERFYPEDLQLIWLENGNVSRNDTPKNLTKNTDGTYNYTSLFLVNSSAHREDVVFTCQVKHDQQPAITRNHTVLGFAHSSDQGSMQTFPDNNATHNWNVFIGVGVACALLVVLLMAALYLLRIKQKKAKGSTSSTRLHEPEKNAREITQVQSLIQDTNDINDITYADLNLPKEKKPAPRAPEPNNHTEYASIETGKVPRPEDTLTYADLDMVHLSRAQPAPKPEPSFSEYASVQVQRK
notes: whole, on cells; Endogenous protein of WT mouse macrophages; In the co-immunoprecipitations it is tyrosine-phosphorylated in its cytoplasmic ITIMs (SIRPα pY); also called murine SIRPα; surface signal regulatory protein α

Assays:
[1] = molecular target: B2; assay: note on the reagent used to ligate SIRPα on WT macrophages (FIG. 10)
[2] = molecular target: T1, SHP-1 (SH2-containing tyrosine phosphatase) of mouse macrophages (mouse, UniProt P29351 1-595, limits assumed); assay: SIRPα immunoprecipitation from LPS- or IL-17-treated WT PEM lysates, WB for SHP-1
T1 construct: Detected by Western blot in SIRPα immunoprecipitates
Method: FIGS. 4A-4E include data related to our experiments on macrophage phagocytic plasticity. FIG. 4A is a panel of illustrative line graphs showing that IL-10 inhibits macrophage phagocytosis toward “self.” PEMs were treated with LPS and activating cytokines along with various concentrations of IL-10 before testing their ability to phagocytose RBCs. FIG. 4B illustrates the phagocytic plasticity of WT red pulp macrophages. […] Treatments of cultured macrophages with LPS and IL-17 re-elicited their phagocytosis toward RBCs. […] Error bars are ±SEM. ***P<0.001 vs. freshly isolated splenic macrophages. FIG. 4D includes microscopic images of RBC phagocytosis by LPS- and IL-17-treated splenic macrophages. […] WT PEMs treated with LPS or IL-17 were further treated with Cd47⁺ RBCs or Cd47-AP (10 min, 37° C.) followed by cell lysis, SIRPα immunoprecipitation, and WB detection of SIRPα phosphorylation (SIRPα^pY) and SHP-1 association. Data presented in each panel represent at least three independent experiments with n≥4, if applicable.

T1 sequence (P29351 whole entry): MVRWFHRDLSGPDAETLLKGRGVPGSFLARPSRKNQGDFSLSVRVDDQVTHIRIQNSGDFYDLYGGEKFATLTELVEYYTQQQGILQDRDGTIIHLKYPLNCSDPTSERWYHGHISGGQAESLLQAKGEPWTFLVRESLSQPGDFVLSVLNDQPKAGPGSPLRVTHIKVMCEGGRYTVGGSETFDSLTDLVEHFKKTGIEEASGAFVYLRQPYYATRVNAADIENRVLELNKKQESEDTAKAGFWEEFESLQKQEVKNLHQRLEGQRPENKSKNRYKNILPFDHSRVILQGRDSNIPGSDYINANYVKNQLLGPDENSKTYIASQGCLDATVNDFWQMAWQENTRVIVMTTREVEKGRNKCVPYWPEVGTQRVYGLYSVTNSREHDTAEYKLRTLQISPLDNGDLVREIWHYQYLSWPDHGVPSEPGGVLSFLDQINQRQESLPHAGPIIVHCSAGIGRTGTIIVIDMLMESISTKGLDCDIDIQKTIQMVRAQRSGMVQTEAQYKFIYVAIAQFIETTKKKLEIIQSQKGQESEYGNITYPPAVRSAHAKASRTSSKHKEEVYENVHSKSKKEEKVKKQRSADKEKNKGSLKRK

Row | Binder | binding result [1] | binding result [2]
1 | B1 | binds | 
2 | B2 |  | binds

From patent US20190134089A1 (GEORGIA STATE UNIVERSITY RESEARCH FOUNDATION, published 2019)
